Results from PMC5518878.

B1: GRK1 (31-183)-TEV protease fusion (domain or fragment)
chain: RDKKYLAKLKLPPLSKCESLRDSLSLEFESVCLEQPIGKKLFQQFLQSAEKHLPALELWKDIEDYDTADNDLQPQKAQTILAQYLDPQAKLFCSFLDEGIVAKFKEGPVEIQDGLFQPLLQATLAHLGQAPFQEYLGSLYFLRFLQWKWLEAQ
B2: GRK1 (1-183)-TEV protease fusion (domain or fragment)
chain: MDFGSLETVVANSAFIAARGSFDGSSSQPSRDKKYLAKLKLPPLSKCESLRDSLSLEFESVCLEQPIGKKLFQQFLQSAEKHLPALELWKDIEDYDTADNDLQPQKAQTILAQYLDPQAKLFCSFLDEGIVAKFKEGPVEIQDGLFQPLLQATLAHLGQAPFQEYLGSLYFLRFLQWKWLEAQ

Molecular target: full-length rhodopsin of Figure 2A, fused to a TEV cleavage site and tTA (human) (UniProt P08100)
Test: Tango assay (TEV protease proximity reporter); HTL cells co-transfected with receptor-TEV cleavage site-tTA and GRK-TEV protease fusions; luciferase reporter; vehicle or ligand overnight (ATR 10 μM for rhodopsin; paroxetine; DHE 0.1 μM, GR 127935 1 μM; SX 1 μM, ICI 118 551 1 μM); DNA amounts adjusted for similar expression

Chain of full-length rhodopsin of Figure 2A, fused to a TEV cleavage site and tTA (human) (P08100 whole entry, the tested form may be a part): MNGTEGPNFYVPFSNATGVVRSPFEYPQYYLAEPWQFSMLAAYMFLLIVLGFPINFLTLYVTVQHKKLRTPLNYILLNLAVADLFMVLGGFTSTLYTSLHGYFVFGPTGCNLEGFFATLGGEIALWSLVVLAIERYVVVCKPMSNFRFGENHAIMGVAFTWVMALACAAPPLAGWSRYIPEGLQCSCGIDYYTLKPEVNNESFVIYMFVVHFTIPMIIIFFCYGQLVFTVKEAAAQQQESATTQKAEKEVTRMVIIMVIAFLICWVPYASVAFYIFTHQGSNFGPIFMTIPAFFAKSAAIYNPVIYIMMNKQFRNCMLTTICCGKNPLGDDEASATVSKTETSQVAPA

Binder | binding capacity, percent of FL GRK1
B1 | 70%
B2 | 70%
